Experiments:
FLRT2 (in supernatants) = target: T1, FLRT2 (in supernatants) (human, UniProt O43155 36-541); experiment: cell-based immunofluorescence validation (FIG. 17): receptor in supernatants, KCP on cells
T1 sequence: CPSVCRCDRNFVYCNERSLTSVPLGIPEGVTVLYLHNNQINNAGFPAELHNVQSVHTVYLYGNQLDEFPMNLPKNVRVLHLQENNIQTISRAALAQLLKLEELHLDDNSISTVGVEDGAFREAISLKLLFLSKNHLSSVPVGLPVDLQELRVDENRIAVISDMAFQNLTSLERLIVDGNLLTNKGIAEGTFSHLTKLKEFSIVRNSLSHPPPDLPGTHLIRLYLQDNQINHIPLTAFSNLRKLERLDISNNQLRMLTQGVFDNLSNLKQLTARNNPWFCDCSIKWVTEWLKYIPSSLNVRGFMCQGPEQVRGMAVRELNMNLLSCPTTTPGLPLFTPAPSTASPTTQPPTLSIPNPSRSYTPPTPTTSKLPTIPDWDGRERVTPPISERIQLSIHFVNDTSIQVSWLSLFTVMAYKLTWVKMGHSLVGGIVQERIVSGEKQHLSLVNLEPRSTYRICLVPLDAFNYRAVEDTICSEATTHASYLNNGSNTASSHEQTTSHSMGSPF

FLRT1 (in supernatants) = target: T2, FLRT1 (in supernatants) (human, UniProt Q9NZU1 49-552); experiment: as above
T2 sequence: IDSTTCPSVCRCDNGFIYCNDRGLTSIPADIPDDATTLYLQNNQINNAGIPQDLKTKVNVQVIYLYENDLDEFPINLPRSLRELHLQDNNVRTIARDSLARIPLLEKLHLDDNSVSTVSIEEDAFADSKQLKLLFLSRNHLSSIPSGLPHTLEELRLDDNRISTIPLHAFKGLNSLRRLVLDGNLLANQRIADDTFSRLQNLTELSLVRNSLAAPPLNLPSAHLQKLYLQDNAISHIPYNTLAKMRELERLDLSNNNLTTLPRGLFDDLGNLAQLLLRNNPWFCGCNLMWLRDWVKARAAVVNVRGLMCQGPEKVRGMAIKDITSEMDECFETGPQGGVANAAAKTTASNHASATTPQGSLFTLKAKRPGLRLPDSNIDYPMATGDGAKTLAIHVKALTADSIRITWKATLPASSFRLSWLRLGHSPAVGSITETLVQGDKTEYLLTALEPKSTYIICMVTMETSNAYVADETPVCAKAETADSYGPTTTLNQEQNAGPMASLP

B1: HHV8 protein KCP expressed on cells (gD-GPI construct or full-length protein) (other)
chain: QDNEKCSQKTLIGYRLKMSRDGDIAVGETVELRCRSGYTTYARNITATCLQGGTWSEPTATCNKKSCPNPGEIQNGKVIFHGGQDALKYGANISYVCNEGYFLVGREYVRYCMIGASGQMAWSSSPPFCEKEKCHRPKIENGDFKPDKDYYEYNDAVHFECNEGYTLVGPHSIACAVNNTWTSNMPTCELAGCKFPSVTHGYPIQGFSLTYKHKQSVTFACNDGFVLRGSPTITCNVTEWDPPLPKCVLEDIDDPNNSNPGRLHPTPNEKPNGNVFQRSNYTEPPTKPEDTHTAATCDTNCEQPPKILPTSEGFNETTTSNTITKQLEDEKTTSQPNTHITSALTSMKAKGNFTNKTNNSTDLHIASTPTSQDDATPSIPSVQTPNYNTNAPTRTLTSLHIEEGPSNSTTSEKATASTLSHNSHKNDTGGIYTTLNKTTQLPSTNKPTNSQAKSSTKPRVETHNKTTSNPAISLTDSADVPQRPREPTLPPIFRPPASKNRYL
notes: also called HHV8 KCP
binding result (FLRT2 (in supernatants)): binds
binding result (FLRT1 (in supernatants)): binds

Source: patent US20240011017A1 (Genentech, published 2024)
